Results on one substance are retold here after US20150104450A1.

In experiment [1] the target is human CD86 extracellular domain with FLAG 10xhis tag (human). The experiment can be described thus: SPR (Biacore 2000), CTLA-4-Fc amine-coupled to CM5, ligand ECD as analyte, monovalent affinity. For orientation: In SPR one partner is held on a chip, and binding of the other changes the refractive index at the surface.
Experiment [2] addresses cynomolgus monkey CD86 extracellular domain with FLAG 10xhis tag (cynomolgus monkey). The experiment is described as above.
Experiment [3] deals with human CD86 extracellular domain with FLAG 10xhis tag (human). In words: SPR (Biacore 2000), ratio of KD.
The target of experiment [4] is cynomolgus monkey CD86 extracellular domain with FLAG 10xhis tag (cynomolgus monkey). The experiment can be described thus: SPR (Biacore 2000), ratio of KD.
Sequence of cynomolgus monkey CD86 extracellular domain with FLAG 10xhis tag (cynomolgus monkey) (chain, as listed by the source limits assumed, form in doubt): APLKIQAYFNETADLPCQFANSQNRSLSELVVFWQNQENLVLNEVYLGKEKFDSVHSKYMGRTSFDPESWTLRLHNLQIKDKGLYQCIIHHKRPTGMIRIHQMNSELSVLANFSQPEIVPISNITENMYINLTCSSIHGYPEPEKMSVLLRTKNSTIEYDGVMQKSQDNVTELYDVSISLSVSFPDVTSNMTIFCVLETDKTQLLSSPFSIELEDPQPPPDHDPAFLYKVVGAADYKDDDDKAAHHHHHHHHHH

Sequence of human CD86 extracellular domain with FLAG 10xhis tag (human) (chain, as listed by the source limits assumed, form in doubt): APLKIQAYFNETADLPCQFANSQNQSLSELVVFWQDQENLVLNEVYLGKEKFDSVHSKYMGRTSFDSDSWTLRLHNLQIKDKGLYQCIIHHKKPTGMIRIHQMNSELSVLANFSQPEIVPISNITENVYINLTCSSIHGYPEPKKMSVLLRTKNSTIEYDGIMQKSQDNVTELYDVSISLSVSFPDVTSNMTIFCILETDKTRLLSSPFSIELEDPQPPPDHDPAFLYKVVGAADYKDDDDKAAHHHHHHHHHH

In general, Kd refers to the equilibrium constant for the complex coming apart. As for “wild type CTLA-4 (SEQ ID NO: 35) in Fc fusion format”, the Kd in experiment [1] came out at 6.42 µM; in experiment [2], 6.53 µM. Further, the fold-improvement in affinity over wild type CTLA-4 in Fc fusion format in experiment [3] and in experiment [4] was 1 fold throughout.
